Data: patent US7951914B2, “Genetically modified cyclic-nucleotide controlled ion channels” (Forschungszentrum Julich GmbH, priority 2001, dated 2011)

What was measured:
α3-CNG channel = assay: Fluorescence-optical Ca2+ measurement: cAMP sensor sensitivity of α3-CNG channel variants after adenosine stimulation; assay type: cell-based; conditions: stimulation with 3 μm adenosine (about half maximum)
Excerpt: The excitation wavelength was 485 nm. The emission wavelength was 520 nm.
The extent of the change in intracellular Ca^2+ concentration (fluorescence signal) was plotted as a function of time. […] Cells which stably express the T537S mutant of the α3-CNG channel were also stimulated for comparison.

[1] = test system: homooligomeric bovine α3 CNG channels; assay: Patch clamp electrophysiology of inside-out patches: activation of heterologously expressed CNG channels by cAMP and cGMP; assay type: biochemical; conditions: for Hill coefficient n, cAMP / Hill coefficient n, cAMP, averaged / Hill coefficient n, cGMP / Hill coefficient n, cGMP, averaged: +100 mV; for Hill coefficient n, cAMP: fit of FIG. 1B / 3B; for Hill coefficient n, cAMP, averaged / Hill coefficient n, cGMP, averaged: normalized Hill equation; for Hill coefficient n, cAMP, averaged: averaged parameters (FIG. 1C / 3C); for Hill coefficient n, cGMP: fit of FIG. 2B / 4B; for Hill coefficient n, cGMP, averaged: averaged parameters (FIG. 2C / 4C); for relative selectivity: times more selective for cAMP: quotient K1/2 cGMP / K1/2 cAMP
Excerpt: For this purpose, the corresponding nucleic acids were cloned into the expression vector pcDNA3.1 (Invitrogen) (see Methods). The expression constructs were then used to transform the cells of the human embryonic kidney cell line 293 (HEK293 cells) and the corresponding proteins were functionally expressed therein either transiently or stably (see Methods). The results of the studies are depicted in FIGS. 1-4. FIGS. 1-4 B depict the dependence of the average current on the cAMP concentration and cGMP concentration, respectively, in each case in the form of a dose-response relationship. The results of these measurements were used to calculate the sensitivity of the CNG channels to cAMP and cGMP. […] EMBO J., 13, 5040-5050. For electrophysiological characterization, the cells were transferred to glass slides which had been coated with poly L-lysine, on the day after transfection. The electrophysiological studies were then carried out on the following day. […] The electrophysiological characterization of the genetically modified CNG channels was carried out using the patch clamp technique under voltage clamping conditions. […] inside-out patches were excised from cells which stably expressed genetically modified or wild-type CNG channels. The bath solution containing different concentrations of cyclic nucleotides was used to flow over the membrane patches. Starting from a holding voltage of 0 mV, sudden voltage changes were applied to different test voltages between -100 mV and +100 mV at the patch with a step width of 20 mV. The currents were registered and analyzed using standard methods.

Molecule | change in fluorescence signal (intracellular Ca2+) (α3-CNG channel) | Hill coefficient n, cAMP [1] | Hill coefficient n, cAMP, averaged [1] | Hill coefficient n, cGMP [1] | Hill coefficient n, cGMP, averaged [1] | relative selectivity: times more selective for cAMP [1] | times less sensitive to cGMP in comparison with the T537S mutant ([1]; ratio of K1/2 values) | times less sensitive to cGMP in comparison with the wild type ([1]; ratio of K1/2 values) | times more sensitive to cAMP in comparison with the T537S mutant ([1]; ratio of K1/2 values) | times more sensitive to cAMP in comparison with the wild type ([1]; ratio of K1/2 values) | times less sensitive to cAMP than the T537S mutant ([1]; ratio of K1/2 values)
T537M: bovine α3 CNG channel with methionine in place of threonine T537 (SEQ ID NO 4) (protein, UniProt Q03041 1-663, looked up, variant T537M) Cyclic nucleotide-gated …: MTEKANGVKSSPANNHNHHAPPAIKASGKDDHRASSRPQSAAADDTSSELQQLAEMDAPQQRRGGFRRIARLVGVLREWAYRNFREEEPRPDSFLERFRGPELHTVTTQQGDGKGDKDGEGKGTKKKFELFVLDPAGDWYYRWLFLIALPVLYNWCLLVARACFSDLQKGYYIVWLVLDYVSDVVYIADLFIRLRTGFLEQGLLVKDTKKLRDNYIHTMQFKLDVASIIPTDLIYFAVGIHNPEVRFNRLLHFARMFEFFDRTETRTSYPNIFRISNLILYILIIIHWNACIYYAISKSIGFGVDTWVYPNITDPEYGYLSREYIYCLYWSTLTLTTIGETPPPVKDEEYLFVIFDFLIGVLIFATIVGNVGSMISNMNATRAEFQAKIDAVKHYMQFRKVSKEMEAKVIRWFDYLWTNKKSVDEREVLKNLPAKLRAEIAINVHLSTLKKVRIFQDCEAGLLVELVLKLRPQVFSPGDYICRKGDIGKEMYIIKEGKLAVVADDGVTQYALLSAGSCFGEISILNIKGSKMGNRRMANIRSLGYSDLFCLSKDDLMEAVTEYPDAKRVLEERGREILMKEGLLDENEVAASMEVDVQEKLEQLETNMDTLYTRFARLLAEYTGAQQKLKQRITVLETKMKQNNEDDSLSDGMNSPEPPAEKP | distinct increase in the fluorescence signal | 2.4 | 2.4 | 2.0 | 1.9 | about 6 times | 21 times | about 9 times | about 5 times | about 30 times | 
T537V: bovine α3 CNG channel with valine in place of threonine T537 (SEQ ID NO 6) (protein, Bovine) MTEKANGVKSSPANNHNHHAPPAIKASGKDDHRASSRPQSAAADDTSSELQQLAEMDAPQQRRGGFRRIARLVGVLREWAYRNFREEEPRPDSFLERFRGPELHTVTTQQGDGKGDKDGEGKGTKKKFELFVLDPAGDWYYRWLFLIALPVLYNWCLLVARACFSDLQKGYYIVWLVLDYVSDVVYIADLFIRLRTGFLEQGLLVKDTKKLRDNYIHTMQFKLDVASIIPTDLIYFAVGIHNPEVRFNRLLHFARMFEFFDRTETRTSYPNIFRISNLILYILIIIHWNACIYYAISKSIGFGVDTWVYPNITDPEYGYLSREYIYCLYWSTLTLTTIGETPPPVKDEEYLFVIFDFLIGVLIFATIVGNVGSMISNMNATRAEFQAKIDAVKHYMQFRKVSKEMEAKVIRWFDYLWTNKKSVDEREVLKNLPAKLRAEIAINVHLSTLKKVRIFQDCEAGLLVELVLKLRPQVFSPGDYICRKGDIGKEMYIIKEGKLAVVADDGVTQYALLSAGSCFGEISILNIKGSKMGNRRVANIRSLGYSDLFCLSKDDLMEAVTEYPDAKRVLEERGREILMKEGLLDENEVAASMEVDVQEKLEQLETNMDTLYTRFARLLAEYTGAQQKLKQRITVLETKMKQNNEDDSLSDGMNSPEPPAEKP |  | 2.2 | 1.5 | 2.2 | 2.1 | about 6 times | about 350 times | about 150 times |  | ~3 times | about 2.5 times
